According to patent US20240067696A1 (ZEALAND PHARMA A S, published 2024):
Non-standard residues stand in square brackets, D forms with d. Dab = NCC[C@H](N)C(=O)O; Aib = CC(C)(N)C(=O)O

B1: Compound 20 (peptide)
peptide: H-HAQGTFTSDYSKYLD[Aib]ARAESFVKWLEST-OH
SMILES: CC(C)C[C@H](NC(=O)[C@H](Cc1c[nH]c2ccccc12)NC(=O)[C@H](CCCCN)NC(=O)[C@@H](NC(=O)[C@H](Cc1ccccc1)NC(=O)[C@H](CO)NC(=O)[C@H](CCC(=O)O)NC(=O)[C@H](C)NC(=O)[C@H](CCCNC(=N)N)NC(=O)[C@H](C)NC(=O)C(C)(C)NC(=O)[C@H](CC(=O)O)NC(=O)[C@H](CC(C)C)NC(=O)[C@H](Cc1ccc(O)cc1)NC(=O)[C@H](CCCCN)NC(=O)[C@H](CO)NC(=O)[C@H](Cc1ccc(O)cc1)NC(=O)[C@H](CC(=O)O)NC(=O)[C@H](CO)NC(=O)[C@@H](NC(=O)[C@H](Cc1ccccc1)NC(=O)[C@@H](NC(=O)CNC(=O)[C@H](CCC(N)=O)NC(=O)[C@H](C)NC(=O)[C@@H](N)Cc1c[nH]cn1)[C@@H](C)O)[C@@H](C)O)C(C)C)C(=O)N[C@@H](CCC(=O)O)C(=O)N[C@@H](CO)C(=O)N[C@H](C(=O)O)[C@@H](C)O
B2: Compound 17 (peptide)
peptide: H-HSQGTFTSDYSKYLDLARAEDFVKWLEST-OH
B3: Compound 13 (peptide)
peptide: H-HSQGTFTSDYSKYLDSARAEDFVKWLES-OH
B4: Compound 28 (peptide)
peptide: H-HSQGTFTSDYSKYLDEARAKSFVEWLEST-OH
B5: Compound 18 (peptide)
peptide: H-HSQGTFTSDYSKYLDKRRAEDFVSWLEST-OH
B6: Compound 1 (peptide)
peptide: H-HSQGTFTSDYSKYLDSARAESFVKWLEST-OH
B7: Compound 14 (peptide)
peptide: H-HSQGTFTSDYSKYLDEARAEDFVKWLEST-OH
B8: Compound 19 (peptide)
peptide: H-HSQGTFTSDYSKYLDVARAESFVKWLEST-OH
B9: Compound 12 (peptide)
peptide: H-HSQGTFTSDYSKYLD[Aib]ARAEDFVKWLEST-OH
SMILES: CC(C)C[C@H](NC(=O)[C@H](Cc1c[nH]c2ccccc12)NC(=O)[C@H](CCCCN)NC(=O)[C@@H](NC(=O)[C@H](Cc1ccccc1)NC(=O)[C@H](CC(=O)O)NC(=O)[C@H](CCC(=O)O)NC(=O)[C@H](C)NC(=O)[C@H](CCCNC(=N)N)NC(=O)[C@H](C)NC(=O)C(C)(C)NC(=O)[C@H](CC(=O)O)NC(=O)[C@H](CC(C)C)NC(=O)[C@H](Cc1ccc(O)cc1)NC(=O)[C@H](CCCCN)NC(=O)[C@H](CO)NC(=O)[C@H](Cc1ccc(O)cc1)NC(=O)[C@H](CC(=O)O)NC(=O)[C@H](CO)NC(=O)[C@@H](NC(=O)[C@H](Cc1ccccc1)NC(=O)[C@@H](NC(=O)CNC(=O)[C@H](CCC(N)=O)NC(=O)[C@H](CO)NC(=O)[C@@H](N)Cc1c[nH]cn1)[C@@H](C)O)[C@@H](C)O)C(C)C)C(=O)N[C@@H](CCC(=O)O)C(=O)N[C@@H](CO)C(=O)N[C@H](C(=O)O)[C@@H](C)O
B10: Compound 10 (peptide)
peptide: H-HSQGTFTSDYSKYLDSARAEDFVSWLEST-OH
B11: Compound 16 (peptide)
peptide: H-HSQGTFTSDYSKYLESARAESFVKWLEST-OH
B12: Compound 11 (peptide)
peptide: H-HSQGTFTSDLSKYLDSARAEDFVKWLEST-OH
B13: Compound 25 (peptide)
peptide: H-HSQGTFTSDYSKYLD[Aib]RRAESFVKWLEST-OH
SMILES: CC(C)C[C@H](NC(=O)[C@H](Cc1c[nH]c2ccccc12)NC(=O)[C@H](CCCCN)NC(=O)[C@@H](NC(=O)[C@H](Cc1ccccc1)NC(=O)[C@H](CO)NC(=O)[C@H](CCC(=O)O)NC(=O)[C@H](C)NC(=O)[C@H](CCCNC(=N)N)NC(=O)[C@H](CCCNC(=N)N)NC(=O)C(C)(C)NC(=O)[C@H](CC(=O)O)NC(=O)[C@H](CC(C)C)NC(=O)[C@H](Cc1ccc(O)cc1)NC(=O)[C@H](CCCCN)NC(=O)[C@H](CO)NC(=O)[C@H](Cc1ccc(O)cc1)NC(=O)[C@H](CC(=O)O)NC(=O)[C@H](CO)NC(=O)[C@@H](NC(=O)[C@H](Cc1ccccc1)NC(=O)[C@@H](NC(=O)CNC(=O)[C@H](CCC(N)=O)NC(=O)[C@H](CO)NC(=O)[C@@H](N)Cc1c[nH]cn1)[C@@H](C)O)[C@@H](C)O)C(C)C)C(=O)N[C@@H](CCC(=O)O)C(=O)N[C@@H](CO)C(=O)N[C@H](C(=O)O)[C@@H](C)O
B14: Compound 15 (peptide)
peptide: H-HSQGTFTSDYSKYLD[Aib]ARAESFVKWLEST-OH
SMILES: CC(C)C[C@H](NC(=O)[C@H](Cc1c[nH]c2ccccc12)NC(=O)[C@H](CCCCN)NC(=O)[C@@H](NC(=O)[C@H](Cc1ccccc1)NC(=O)[C@H](CO)NC(=O)[C@H](CCC(=O)O)NC(=O)[C@H](C)NC(=O)[C@H](CCCNC(=N)N)NC(=O)[C@H](C)NC(=O)C(C)(C)NC(=O)[C@H](CC(=O)O)NC(=O)[C@H](CC(C)C)NC(=O)[C@H](Cc1ccc(O)cc1)NC(=O)[C@H](CCCCN)NC(=O)[C@H](CO)NC(=O)[C@H](Cc1ccc(O)cc1)NC(=O)[C@H](CC(=O)O)NC(=O)[C@H](CO)NC(=O)[C@@H](NC(=O)[C@H](Cc1ccccc1)NC(=O)[C@@H](NC(=O)CNC(=O)[C@H](CCC(N)=O)NC(=O)[C@H](CO)NC(=O)[C@@H](N)Cc1c[nH]cn1)[C@@H](C)O)[C@@H](C)O)C(C)C)C(=O)N[C@@H](CCC(=O)O)C(=O)N[C@@H](CO)C(=O)N[C@H](C(=O)O)[C@@H](C)O
B15: Compound 24 (peptide)
peptide: H-HS[Dab](Ac)GTFTSDYSKYLD[Aib]ARAESFVKWLEST-NH2
SMILES: CC(=O)NCC[C@H](NC(=O)[C@H](CO)NC(=O)[C@@H](N)Cc1c[nH]cn1)C(=O)NCC(=O)N[C@H](C(=O)N[C@@H](Cc1ccccc1)C(=O)N[C@H](C(=O)N[C@@H](CO)C(=O)N[C@@H](CC(=O)O)C(=O)N[C@@H](Cc1ccc(O)cc1)C(=O)N[C@@H](CO)C(=O)N[C@@H](CCCCN)C(=O)N[C@@H](Cc1ccc(O)cc1)C(=O)N[C@@H](CC(C)C)C(=O)N[C@@H](CC(=O)O)C(=O)NC(C)(C)C(=O)N[C@@H](C)C(=O)N[C@@H](CCCNC(=N)N)C(=O)N[C@@H](C)C(=O)N[C@@H](CCC(=O)O)C(=O)N[C@@H](CO)C(=O)N[C@@H](Cc1ccccc1)C(=O)N[C@H](C(=O)N[C@@H](CCCCN)C(=O)N[C@@H](Cc1c[nH]c2ccccc12)C(=O)N[C@@H](CC(C)C)C(=O)N[C@@H](CCC(=O)O)C(=O)N[C@@H](CO)C(=O)N[C@H](C(N)=O)[C@@H](C)O)C(C)C)[C@@H](C)O)[C@@H](C)O
B16: Compound 22 (peptide)
peptide: H-HSQ[dA]TFTSDYSKYLD[Aib]ARAESFVKWLEST-OH
SMILES: CC(C)C[C@H](NC(=O)[C@H](Cc1c[nH]c2ccccc12)NC(=O)[C@H](CCCCN)NC(=O)[C@@H](NC(=O)[C@H](Cc1ccccc1)NC(=O)[C@H](CO)NC(=O)[C@H](CCC(=O)O)NC(=O)[C@H](C)NC(=O)[C@H](CCCNC(=N)N)NC(=O)[C@H](C)NC(=O)C(C)(C)NC(=O)[C@H](CC(=O)O)NC(=O)[C@H](CC(C)C)NC(=O)[C@H](Cc1ccc(O)cc1)NC(=O)[C@H](CCCCN)NC(=O)[C@H](CO)NC(=O)[C@H](Cc1ccc(O)cc1)NC(=O)[C@H](CC(=O)O)NC(=O)[C@H](CO)NC(=O)[C@@H](NC(=O)[C@H](Cc1ccccc1)NC(=O)[C@@H](NC(=O)[C@@H](C)NC(=O)[C@H](CCC(N)=O)NC(=O)[C@H](CO)NC(=O)[C@@H](N)Cc1c[nH]cn1)[C@@H](C)O)[C@@H](C)O)C(C)C)C(=O)N[C@@H](CCC(=O)O)C(=O)N[C@@H](CO)C(=O)N[C@H](C(=O)O)[C@@H](C)O
B17: Compound 27 (peptide)
peptide: H-HSQGTFTSDYSKYLDEARAKSFVEWLEKT-OH
B18: Compound 23 (peptide)
peptide: H-HSQGTFTSDVSKYLD[Aib]ARAESFVKWLEST-OH
SMILES: CC(C)C[C@H](NC(=O)[C@H](Cc1c[nH]c2ccccc12)NC(=O)[C@H](CCCCN)NC(=O)[C@@H](NC(=O)[C@H](Cc1ccccc1)NC(=O)[C@H](CO)NC(=O)[C@H](CCC(=O)O)NC(=O)[C@H](C)NC(=O)[C@H](CCCNC(=N)N)NC(=O)[C@H](C)NC(=O)C(C)(C)NC(=O)[C@H](CC(=O)O)NC(=O)[C@H](CC(C)C)NC(=O)[C@H](Cc1ccc(O)cc1)NC(=O)[C@H](CCCCN)NC(=O)[C@H](CO)NC(=O)[C@@H](NC(=O)[C@H](CC(=O)O)NC(=O)[C@H](CO)NC(=O)[C@@H](NC(=O)[C@H](Cc1ccccc1)NC(=O)[C@@H](NC(=O)CNC(=O)[C@H](CCC(N)=O)NC(=O)[C@H](CO)NC(=O)[C@@H](N)Cc1c[nH]cn1)[C@@H](C)O)[C@@H](C)O)C(C)C)C(C)C)C(=O)N[C@@H](CCC(=O)O)C(=O)N[C@@H](CO)C(=O)N[C@H](C(=O)O)[C@@H](C)O
B19: Compound 9 (peptide)
peptide: H-HSQGTFTSDYSKYLDSARAEEFVKWLEST-OH

What follows are binders tested against human glucagon receptor (human, UniProt P47871 26-477) (assay: cell-based or functional assay).
Chain of human glucagon receptor (P47871 26-477): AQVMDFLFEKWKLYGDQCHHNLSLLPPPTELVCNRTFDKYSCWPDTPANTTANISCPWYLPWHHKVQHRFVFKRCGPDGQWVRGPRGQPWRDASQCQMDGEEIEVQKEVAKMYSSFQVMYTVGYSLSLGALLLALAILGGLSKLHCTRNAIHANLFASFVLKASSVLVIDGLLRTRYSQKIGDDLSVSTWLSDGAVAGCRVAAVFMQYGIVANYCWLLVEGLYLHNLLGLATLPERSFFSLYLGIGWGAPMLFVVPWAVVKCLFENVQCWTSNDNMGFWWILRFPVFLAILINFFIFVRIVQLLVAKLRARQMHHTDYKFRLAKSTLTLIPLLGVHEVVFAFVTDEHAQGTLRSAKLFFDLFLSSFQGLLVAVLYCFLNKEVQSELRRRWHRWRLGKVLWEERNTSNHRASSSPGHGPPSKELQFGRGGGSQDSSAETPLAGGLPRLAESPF

Point of comparison: B9, “GCG-R EC50 in vitro [nM] (cAMP, AlphaScreen, HEK293 cells expressing human Glucagon-R)” value 0.03 nM. Against it:
- B1 — 8-fold higher, 0.24 nM
- B2 — within 1.5-fold, 0.029 nM
- B3 — 2.3-fold higher, 0.07 nM
- B4 — within 1.5-fold, 0.035 nM
- B5 — within 1.5-fold, 0.026 nM
- B6 — 2.1-fold higher, 0.064 nM
- B7 — 5-fold higher, 0.15 nM
- B8 — 1.8-fold higher, 0.054 nM
- B10 — 11-fold higher, 0.32 nM
- B11 — 13-fold higher, 0.39 nM
- B12 — 3.7-fold higher, 0.11 nM
- B13 — 4.5-fold lower, 0.0066 nM
- B14 — the same, 0.03 nM
- B15 — 3.8-fold lower, 0.0078 nM
- B16 — within 1.5-fold, 0.024 nM
- B17 — 2.1-fold higher, 0.063 nM
- B18 — 5.3-fold higher, 0.16 nM
- B19 — the same, 0.03 nM
